Measurements taken from PMC8977021, “bZIP transcription factors PcYap1 and PcRsmA link oxidative stress response to secondary metabolism and development in Penicillium chrysogenum”.

T1: PcAtf21 del319-319 (Penicillium chrysogenum Wis54-1255 (P. rubens Wis54-1255)) (UniProt B6HLX5)
T1 sequence: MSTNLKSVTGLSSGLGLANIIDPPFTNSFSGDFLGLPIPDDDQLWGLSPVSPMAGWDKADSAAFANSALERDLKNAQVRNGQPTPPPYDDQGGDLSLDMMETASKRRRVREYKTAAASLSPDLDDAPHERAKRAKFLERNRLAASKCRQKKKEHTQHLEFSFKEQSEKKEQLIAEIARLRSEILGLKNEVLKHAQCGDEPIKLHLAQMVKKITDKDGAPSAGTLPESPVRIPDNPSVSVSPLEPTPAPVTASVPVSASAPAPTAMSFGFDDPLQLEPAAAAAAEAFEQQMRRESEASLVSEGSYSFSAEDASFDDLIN

T2: PcAtf21 (Penicillium chrysogenum Wis54-1255 (P. …, UniProt B6HLX5 1-318, del319-319))
T2 sequence: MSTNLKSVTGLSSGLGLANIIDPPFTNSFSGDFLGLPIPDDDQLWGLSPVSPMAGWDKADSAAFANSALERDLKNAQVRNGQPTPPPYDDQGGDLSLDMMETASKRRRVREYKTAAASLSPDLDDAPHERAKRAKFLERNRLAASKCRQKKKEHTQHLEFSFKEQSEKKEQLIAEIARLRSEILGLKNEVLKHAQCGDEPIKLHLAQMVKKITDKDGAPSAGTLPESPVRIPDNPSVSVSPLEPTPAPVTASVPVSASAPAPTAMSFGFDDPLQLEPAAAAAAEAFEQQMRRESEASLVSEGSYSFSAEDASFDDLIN

B1: NorR4 (dsDNA)
DNA 1: TTTCAACATTTCTTGAGTACTTTTCTAAGCCGTGACATAATGAACGGATCA
DNA 2: TGATCCGTTCATTATGTCACGGCTTAGAAAAGTACTCAAGAAATGTTGAAA
B2: penDE-CRE123 (dsDNA)
DNA 1: AGGTCCTGCATTAGCGTACGCCCCAGGTTTAGATCAAAGTTACGTAATTTATATGTA
DNA 2: TACATATAAATTACGTAACTTTGATCTAAACCTGGGGCGTACGCTAATGCAGGACCT

Legend:
[1] = target: T1, PcAtf21 del319-319 (Penicillium chrysogenum Wis54-1255 (P. rubens Wis54-1255)); experiment: EMSA; settings: LightShift binding buffer 1X, about 10% glycerol, 5 mM MgCl2, 20 fmol biotin probe, 10 ug protein, 20 uL, room temperature 20 min; 5% native PAGE in 0.5X TBE …
[2] = target: T2, PcAtf21; experiment: EMSA; LightShift binding buffer 1X, about 10% glycerol, 5 mM MgCl2, 20 fmol biotin probe, 10 ug protein, 20 uL, room temperature 20 min; 5% native PAGE in 0.5X TBE; pH and salt not given; settings: protein: recombinant; tags: C-terminal c-myc-6xHis; chain copies: 2; label: 3' biotin; blunt

Row | Molecule | binding [1] | binding result [2]
1 | AACATCGCCGTCGTTGAGTGCACGTTGCCTACTCTCTCGTGGCTTGGCTGGGCCCACGAGCCCGATTGACTCGACGGTGTTACTTGGGTATCTATGGCCCCGTTTTCTGGCACGGTAATGATAAGTACTTACTAGTCTTCGAGCGGGGGAGTGTTGCTCTGCCCGAGCATCAACGATTGGCCTGA (double strand) [probe 4] | no binding | –
2 | TGTTTATGCTGAGACAACCTGGAGACATTATACGCTTGCAGCCCAGATGCTTACTGGATGGGGCCGCTGGAGCCAGTGTAAAATTAGTAACCGTATCTCGAAGTCGGAGGGTCTTTGGTGGTCTGAGATTTCAGTCGGTCCGCACCGTGGCATTTGCAGACGGTGCGATCAGGCCAATCGTTGATGCTCGG (double strand) [probe 5] | no binding | –
3 | B1 | – | binds
4 | B2 | – | no binding
